# Test results from the supplement of paper PMC12042874.
# ± gives the uncertainty stated by the source.
# Experiment: amyloid nucleation score (Sup35N fusion, yeast selection) (log enrichment); library NNK3; higher = more nucleation; inactive = no reads after selection
# Summary of the method: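 The nucleation score, computed with DiMSum, is the log enrichment of output over input reads, centred on the mode score of non-aggregating sequences. Sequences with under 100 input reads were dropped. Reads were generated by Illumina sequencing of plasmid inserts from psi-negative yeast with Sup35N fused to peptides of 20 random codons, induced with 100 μM copper sulfate for 24 hours and grown 7 days at 30°C on medium lacking adenine and uracil.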
row,Substance,amyloid nucleation score
1,IFPFFVSL,inactive
2,IFRSHMQSLGK,inactive
3,IFSRLGFVCLIMFTC,inactive
4,IFTLMINCLE,0.809 ± 0.1
5,IFVILW,0.101 ± 0.6
6,IFVVYFGISTIRNT,1.32 ± 0.097
7,IGAIYACRLFVRGLASFLTL,inactive
8,IGDNCCIWMLDVHSVTLVSE,0.329 ± 0.2
9,IGEILIVFALTRNTVVGYGF,inactive
10,IGFRWY,inactive
11,IGGRTDNSELTCTRGMRFLC,inactive
12,IGINVRALRRGLTLVPL,inactive
13,IGISSGVTKICYGGTFKHMP,inactive
14,IGNLLLGCRPSQNSLRAHTS,inactive
15,IGRMKRSIGRCDPVWWNWVQ,inactive
16,IGRTLSHSATRLVCTDPFRR,inactive
17,IGSSRIDFSSRNYGV,0.576 ± 0.12
18,IHDDSKNGK,0.57 ± 0.16
19,IHHQC,inactive
20,IHLVFREDITLVWVWNWIHV,inactive
21,IHTGKMLTYCFKSNLSVRTS,inactive
22,IIELYT,inactive
23,IIGPGYFFYLKLYA,0.549 ± 0.27
24,IIISSFSDWCYFGRDDSCRM,-0.36 ± 0.63
25,IILVSYVREMKHSSSSFVLS,2.04 ± 0.098
26,IIMGV,inactive
27,IIMSLLIALP,0.653 ± 0.18

row,Substance,amyloid nucleation score
1,IIPYCRS,inactive
2,IIPYHEFIVGALVSHRWCQD,inactive
3,IIVSRWLWWDIGVSRNW,inactive
4,IIWLWGNNGKYTMGFLGIGG,inactive
5,IIYFRVISIGYSWGIVRDRF,inactive
6,IKAPRFYAPFLLIVSQWVST,inactive
7,IKDIFACSMCFTTKSNAAHY,3 ± 0.053
8,IKFIERWYQFTYVHCLQVMG,-0.247 ± 0.64
9,IKKHCV,inactive
10,IKRGRTVQKVFCMWVVSYPR,inactive
11,IKVISLEAMKTYCF,inactive
12,ILDAEVFGLISGFMSMHCNA,inactive
13,ILENVA,inactive
14,ILEVGRQCMDGFCSKFNGEY,inactive
15,ILFRYFISGMVVWGDNMENE,inactive
16,ILFVAGIETFSALSFRWTGV,inactive
17,ILINSRFMRFVFRAGHRV,inactive
18,ILISMEPPLFRDTLKNTGNC,inactive
19,ILLVWNSMLYYTLDTCVNCC,inactive
20,ILQKSDVSII,inactive
21,ILRLSPTFGRQSYSVKVGLK,inactive
22,ILRNMDGRRNSVVRDVVRVK,inactive
23,ILTNTIRGKVDSLRLFKTSW,inactive
24,ILTWRRFVFFLDWVDFTSQG,inactive
25,ILVDWFDCDQCKQTFCPGLV,inactive
26,ILYGKVTKKRGSKALSVRVM,inactive
27,ILYLITFAELCWKSRHWHLG,inactive

row,Substance,amyloid nucleation score
1,IMSRCISTHLG,inactive
2,INFCIINNTMV,1.75 ± 0.071
3,INKSWGVFP,0.687 ± 0.18
4,INLNYDLKFGYVYHMLFT,inactive
5,INNASRRPCNMHVDVYRLLR,inactive
6,INPRSYADLYYIRFNHWWLL,inactive
7,INQRLYEPFGRWVWTRYIAR,inactive
8,INWFGVRYRYDSSNYFMYQL,0.986 ± 0.21
9,INWTRLRSRSEVWDTGRVWT,inactive
10,INYCALARFLMNECLCPICT,inactive
11,IPCMG,inactive
12,IPRWKFN,-0.57 ± 1.1
13,IPTSQAEFCCFSGAKHFQIV,inactive
14,IPVLLPSMCINNKFMVSSWN,1.39 ± 0.1
15,IPYSTHRINSILISLSWFCV,0.691 ± 0.2
16,IQKLSFYTVCFMYDWLLTFK,inactive
17,IQLAYIPEMALPTSWARVSG,inactive
18,IQLKDKNGDL,inactive
19,IQNIVRLDSVVSMVFGRLVI,inactive
20,IQQGKVYKGTLLLTAYMTSE,1.11 ± 0.096
21,IRCNRYVSL,inactive
22,IRGEFLQQPFIVDRNHVRWL,inactive
23,IRGSHGRWYSTHNCLTCDME,inactive
24,IRGVECNRLGIYLLCVTHSM,-0.624 ± 0.8
25,IRLSQNWGSYVCSNTLNSER,inactive
26,IRLVPWFW,inactive
